# “And” between values parts separate entries of the source, which are not always exact repeats. Equal values may be shown once. Read-outs that look alike come from different tables or passages of the source.
# Assays:
# [1] = target: HIV-1 integrase F185K (pNY strain) (human immunodeficiency virus type-1 (pNY strain)); test: SEC
# [2] = target: HIV-1 integrase F185K (pNY strain) (human immunodeficiency virus type-1 (pNY strain)); test: SEC; remark: listed apart in the source
# [3] = target: wt HIV-1 integrase (pNY strain) (human immunodeficiency virus type-1 (pNY strain)); test: cross-linking
# [4] = target: wt HIV-1 integrase (pNY strain) (human immunodeficiency virus type-1 (pNY strain)); test: cross-linking; remark: listed apart in the source
# [5] = target: wt HIV-1 integrase (pNY strain) (human immunodeficiency virus type-1 (pNY strain)); test: SEC
# [6] = target: wt Rous sarcoma virus integrase (286 residues) (Rous sarcoma virus); test: SEC
# [7] = target: wt Rous sarcoma virus integrase (286 residues) (Rous sarcoma virus); test: SEC; remark: listed apart in the source
substance,measurement,setting,value
HIV-1 integrase F185K (pNY strain) (enzyme),percent converted to tetramers,[1],65%
same,stoichiometry N,[1],2 and 4
same,stoichiometry N,[2],2
wt HIV-1 integrase (pNY strain) (enzyme),stoichiometry N,[3],2
same,stoichiometry N,[4],2 and 3 and 4
same,stoichiometry N,[5],4
wt Rous sarcoma virus integrase (286 residues) (enzyme),stoichiometry N,[6],2 and 4
same,stoichiometry N,[7],2 and 4
